From US10501552B2, “Multivalent molecules comprising DR5-binding domains” (MacroGenics, Inc., priority 2015, dated 2019)

B1: DR5 mAb 2: murine anti-human DR5 monoclonal antibody; VL SEQ ID NO:13, VH SEQ ID NO:18 (antibody, listed as Mus musculus, V domains shown)
VH: KVQLQQSGAELVKPGASVKLSCKASGYTFTEYILHWVKQKSGQGLEWIGWFYPGNNNIKYNEKFKDKATLTADKSSSTVYMELSRLTSEDSAVYFCARHEQGPGYFDYWGQGTTLTVSS
VL: DIVMTQSHKFMSTSVGDRVSITCKASQDVNTAVAWYQQKPGQSPKLLIYWASTRHTGVPDRFTGSGSGTDYTLTIKSVQAEDLTLYYCQQHYITPWTFGGGTKLEIK
modifications: (1)..(119) Anti-DR5 Antibody mAb 2 Heavy Chain Variable Region; (1)..(107) Anti-DR5 Antibody mAb 2 Light Chain Variable Region
B2: DR5 mAb 1: anti-human DR5 monoclonal antibody; VL SEQ ID NO:3, VH SEQ ID NO:8 (antibody, listed as Mus musculus, V domains shown)
VH: EVKFLESGGGLVQPGGSLKLSCVASGFDFSRYWMSWVRQAPGKGLEWIGEINPDSNTINYTPSLKDKFIISRDNAKNTLYLQMTKVRSEDTALYYCTRRAYYGNPAWFAYWGQGTLVTVSS
VL: DIVLTQSPASLAVSLGQRATISCRASKSVSSSGYSYMHWYQQKPGQPPKVLIFLSSNLDSGVPARFSGSGSGTDFTLNIHPVEDGDAATYYCQHSRDLPPTFGGGTKLEIK
modifications: (1)..(121) Anti-DR5 Antibody mAb 1 Heavy Chain Variable Region; (1)..(111) Anti-DR5 Antibody mAb 1 Light Chain Variable Region

Tests used:
Calu3 = assay: MTS cell proliferation assay; type: cell-based; conditions: Calu3 (Lung); 1 μg/ml, ±10 μg/ml αmFc; two days
Protocol: (§1) Cell lines obtained from ATCC were cultured under standard tissue culture conditions. Each cell line was plated at ˜2×10^4 cells/well (in 96-well plates), and incubated overnight in F12/DMEM media supplemented with 10% FBS. […] Cell viability was determined using Promega CellTiter 96® AQeous Non-Radioactive Cell Proliferation Assay (Cat # G5430) essentially as described in the manufacturer's instructions to assay the amount of soluble formazan produced by cellular reduction of the MTS, which is a measure of the number of viable cells in the culture. Briefly, MTS/PMS regent was added to the wells and the absorbance at 490 nm (referenced at […]) was read in a Molecular Devices ThermoMax microplate reader.
(§2) Similar studies were performed over a range of anti-DR5 mAb concentrations from ˜10^−3 nM to ˜10^2 nM. The data for COLO205 cells is provided in FIG. 13, and are representative of cell lines sensitive to the antibodies of the invention.
(§3) The cytotoxicity of tetravalent DR5-Binding Molecules of the present invention was investigated. […] His-tagged TRAIL (R&D systems) was used as a positive control.
(§4) Similar studies were performed over a range of anti-DR5 mAb concentrations from ˜10^−3 nM to ˜10^2 nM.

A498 = assay: MTS cell proliferation assay; type: cell-based; conditions: A498 (Kidney); 1 μg/ml, ±10 μg/ml αmFc; two days
Protocol: as §1, §2, §3, §4

CaKi2 = assay: MTS cell proliferation assay; type: cell-based; conditions: CaKi2 (Kidney); 1 μg/ml, ±10 μg/ml αmFc; two days
Protocol: as §1, §2, §3, §4

MDA-MB-175VII = assay: MTS cell proliferation assay; type: cell-based; conditions: MDA-MB-175VII (Breast); 1 μg/ml, ±10 μg/ml αmFc; two days
Protocol: as §1, §2, §3, §4

MDA-MB-231 = assay: MTS cell proliferation assay; type: cell-based; conditions: MDA-MB-231 (Breast); 1 μg/ml, ±10 μg/ml αmFc; two days
Protocol: as §1, §2, §3, §4

NCI-N87 = assay: MTS cell proliferation assay; type: cell-based; conditions: NCI-N87 (Stomach); 1 μg/ml, ±10 μg/ml αmFc; two days
Protocol: as §1, §2, §3, §4

MCF7 = assay: MTS cell proliferation assay; type: cell-based; conditions: MCF7 (Breast); 1 μg/ml, ±10 μg/ml αmFc; two days
Protocol: as §1, §2, §3, §4

ES2 [1] = assay: MTS cell proliferation assay; type: cell-based; conditions: ES2 (Ovary); 1 μg/ml, ±10 μg/ml αmFc; two days
Protocol: as §1, §2, §3, §4

HPAFII = assay: MTS cell proliferation assay; type: cell-based; conditions: HPAFII (Pancreas); 1 μg/ml, ±10 μg/ml αmFc; two days
Protocol: as §1, §2, §3, §4

Hs746T = assay: MTS cell proliferation assay; type: cell-based; conditions: Hs746T (Stomach); 1 μg/ml, ±10 μg/ml αmFc; two days
Protocol: as §1, §2, §3, §4

AsPC1 = assay: MTS cell proliferation assay; type: cell-based; conditions: AsPC1 (Pancreas); 1 μg/ml, ±10 μg/ml αmFc; two days
Protocol: as §1, §2, §3, §4

BT474 = assay: MTS cell proliferation assay; type: cell-based; conditions: BT474 (Breast); 1 μg/ml, ±10 μg/ml αmFc; two days
Protocol: as §1, §2, §3, §4

786O = assay: MTS cell proliferation assay; type: cell-based; conditions: 786O (Kidney); 1 μg/ml, ±10 μg/ml αmFc; two days
Protocol: as §1, §2, §3, §4

SW48 = assay: MTS cell proliferation assay; type: cell-based; conditions: SW48 (Colon); 1 μg/ml, ±10 μg/ml αmFc; two days
Protocol: as §1, §2, §3, §4

SKOV3 = assay: MTS cell proliferation assay; type: cell-based; conditions: SKOV3 (Ovary); 1 μg/ml, ±10 μg/ml αmFc; two days
Protocol: as §1, §2, §3, §4

Hs700T = assay: MTS cell proliferation assay; type: cell-based; conditions: Hs700T (Pancreas); 1 μg/ml, ±10 μg/ml αmFc; two days
Protocol: as §1, §2, §3, §4

PC3 = assay: MTS cell proliferation assay; type: cell-based; conditions: PC3 (Prostate); 1 μg/ml, ±10 μg/ml αmFc; two days
Protocol: as §1, §2, §3, §4

SW948 = assay: MTS cell proliferation assay; type: cell-based; conditions: SW948 (Colon); 1 μg/ml, ±10 μg/ml αmFc; two days
Protocol: as §1, §2, §3, §4

HT29 = assay: MTS cell proliferation assay; type: cell-based; conditions: HT29 (Colon); 1 μg/ml, ±10 μg/ml αmFc; two days
Protocol: as §1, §2, §3, §4

MDA-MB-361 = assay: MTS cell proliferation assay; type: cell-based; conditions: MDA-MB-361 (Breast); 1 μg/ml, ±10 μg/ml αmFc; two days
Protocol: as §1, §2, §3, §4

22RV1 = assay: MTS cell proliferation assay; type: cell-based; conditions: 22RV1 (Prostate); 1 μg/ml, ±10 μg/ml αmFc; two days
Protocol: as §1, §2, §3, §4

DR5-Fc fusion = assay: binding to immobilized DR5-Fc fusion in presence of TRAIL; set-up: species or system human; conditions: for amount of immobilized biotinylated antibody: 2 μg/mL biotinylated, 1 μg/mL DR5-Fc fusion coat
DR5-Fc fusion, sequence (as listed by the source): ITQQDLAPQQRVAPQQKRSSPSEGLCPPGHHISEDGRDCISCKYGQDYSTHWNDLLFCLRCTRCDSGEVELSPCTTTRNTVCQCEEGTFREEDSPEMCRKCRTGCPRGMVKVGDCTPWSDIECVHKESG
Protocol: The amount of immobilized biotinylated antibody was assessed.

SKBR3 = assay: MTS cell proliferation assay; type: cell-based, human; conditions: SKBR3 (Breast); 1 μg/ml, ±10 μg/ml αmFc; two days
Protocol: as §1, §2, §3, §4

DU145 = assay: MTS cell proliferation assay; type: cell-based, human; conditions: DU145 (Prostate); 1 μg/ml, ±10 μg/ml αmFc; two days
Protocol: as §1, §2, §3, §4

SKMES = assay: MTS cell proliferation assay; type: cell-based, human; conditions: SKMES (Lung); 1 μg/ml, ±10 μg/ml αmFc; two days
Protocol: as §1, §2, §3, §4

LNCap = assay: MTS cell proliferation assay; type: cell-based, human; conditions: LNCap (Prostate); 1 μg/ml, ±10 μg/ml αmFc; two days
Protocol: as §1, §2, §3, §4

A549 = assay: MTS cell proliferation assay; type: cell-based, human; conditions: A549 (Lung); 1 μg/ml, ±10 μg/ml αmFc; two days
Protocol: as §1, §2, §3, §4

ES2 [2] = assay: […]-GLO cell viability assay with vorinostat; type: cell-based; conditions: ES2 (Ovary); 1 μg/ml + 10 μM Vorinostat

Row | Molecule | % Inhibition (Average) (Calu3) [%] | % Inhibition (Average) (A498) [%] | % Inhibition (Average) (CaKi2) [%] | % Inhibition (Average) (MDA-MB-175VII) [%] | % Inhibition (Average) (MDA-MB-231) [%] | % Inhibition (Average) (NCI-N87) [%] | % Inhibition (Average) (MCF7) [%] | % Inhibition (Average) (ES2 [1]) [%] | % Inhibition (Average) (HPAFII) [%] | % Inhibition (Average) (Hs746T) [%] | % Inhibition (Average) (AsPC1) [%] | % Inhibition (Average) (BT474) [%] | % Inhibition (Average) (786O) [%] | % Inhibition (Average) (SW48) [%] | % Inhibition (Average) (SKOV3) [%] | % Inhibition (Average) (Hs700T) [%] | % Inhibition (Average) (PC3) [%] | % Inhibition (Average) (SW948) [%] | % Inhibition (Average) (HT29) [%] | % Inhibition (Average) (MDA-MB-361) [%] | further results
1 | B1 | 2.06 | 1.92 | 2.64 | 1.09 | 4.47 | 0.67 | 3.98 | 1.88 | 2.68 | 1.25 | 0.13 | 2.84 | 1.79 | 2.44 | 2.02 | 0.99 | 2.19 | 1.76 | 0.87 | 1.98 | % Inhibition (Average) (22RV1): 3.89%; effect of histidine tagged TRAIL on amount bound to immobilized DR5-Fc (DR5-Fc fusion): not affected; amount of immobilized biotinylated antibody (DR5-Fc fusion; 20 μg/mL TRAIL-His): 2.052; amount of immobilized biotinylated antibody (DR5-Fc fusion; Buffer): 2.052; % Inhibition (Average) (SKBR3): 2.55%; % Inhibition (Average) (DU145): 2.09%; % Inhibition (Average) (SKMES): 1.28%; % Inhibition (Average) (LNCap): 1.72%; % Inhibition (Average) (A549): 4.25%; Net Gain (Average % Growth Inhibition) (ES2 [2]): 4.17%
2 | B2 | 2.86 | 0.89 | 0.55 | 1.6 | 1.79 | 1.6 | 2.47 | 3.31 | 2.86 | 2.83 | 1.73 | 2.26 | 0.91 | 2.65 | 3.16 | 1.21 | 2.79 | 3.53 | 0.68 | 1.54 | % Inhibition (Average) (22RV1): 3.03%; effect of histidine tagged TRAIL on amount bound to immobilized DR5-Fc (DR5-Fc fusion): not affected; amount of immobilized biotinylated antibody (DR5-Fc fusion; 20 μg/mL TRAIL-His): 1.939; amount of immobilized biotinylated antibody (DR5-Fc fusion; Buffer): 2.118; % Inhibition (Average) (SKBR3): 1.97%; % Inhibition (Average) (DU145): 1.66%; % Inhibition (Average) (SKMES): 1.75%; % Inhibition (Average) (LNCap): 2.1%; % Inhibition (Average) (A549): 2.79%; Net Gain (Average % Growth Inhibition) (ES2 [2]): 4.17%
